Assay results: patent US10941182 (Amgen, dated 2021)
Starred links: 1 amine or outer side, 2 acyl side, 3 side chain; linkers in the order of their positions; H or OH if unused. Non-standard residues stand in square brackets, D forms with d. *: point of attachment. AC4Abu = α-carboxy-4-aminobutyric acid, O=C(C(CCN[*:1])C(=O)[*:3])[*:2]; dBip = N[C@H](Cc1ccc(-c2ccccc2)cc1)C(=O)O; Oic = O=C(O)[C@@H]1C[C@@H]2CCCC[C@@H]2N1; Phe(4-Cl) = N[C@@H](Cc1ccc(Cl)cc1)C(=O)O; dPhe(4-Cl) = N[C@H](Cc1ccc(Cl)cc1)C(=O)O; Phe(4-I) = N[C@@H](Cc1ccc(I)cc1)C(=O)O; γGlu = O=C(O)[C@H](CCC(=O)[*:2])N[*:1]; NMeR = CN[C@@H](CCCNC(=N)N)C(=O)O; Tridecanoyl = CCCCCCCCCCCCC(=O)*; hArg = N=C(N)NCCCC[C@H](N)C(=O)O; Cha = N[C@@H](CC1CCCCC1)C(=O)O; NMeL = CN[C@@H](CC(C)C)C(=O)O; αMeL = CC(C)C[C@](C)(N)C(=O)O; αMeP = C[C@@]1(C(=O)O)CCCN1; Nle = CCCC[C@H](N)C(=O)O; Deg = CCC(N)(CC)C(=O)O; AEEA = NCCOCCOCC(=O)O; BLeu = β-leucine

T1: rat APJ receptor (rat, UniProt Q9JHG3 1-377)
T1 sequence (looked up): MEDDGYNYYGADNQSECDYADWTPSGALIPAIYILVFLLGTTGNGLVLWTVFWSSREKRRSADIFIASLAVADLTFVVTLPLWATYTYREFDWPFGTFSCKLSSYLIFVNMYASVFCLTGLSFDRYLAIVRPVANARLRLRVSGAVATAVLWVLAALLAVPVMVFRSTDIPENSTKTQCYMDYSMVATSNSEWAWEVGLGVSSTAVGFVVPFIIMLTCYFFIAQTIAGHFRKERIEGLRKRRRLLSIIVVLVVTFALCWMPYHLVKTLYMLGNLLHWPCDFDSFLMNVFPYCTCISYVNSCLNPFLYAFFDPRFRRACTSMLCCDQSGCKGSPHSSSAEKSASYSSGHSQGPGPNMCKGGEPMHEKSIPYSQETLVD

T2: human APJ receptor (human, UniProt P35414 1-380)
T2 sequence (looked up): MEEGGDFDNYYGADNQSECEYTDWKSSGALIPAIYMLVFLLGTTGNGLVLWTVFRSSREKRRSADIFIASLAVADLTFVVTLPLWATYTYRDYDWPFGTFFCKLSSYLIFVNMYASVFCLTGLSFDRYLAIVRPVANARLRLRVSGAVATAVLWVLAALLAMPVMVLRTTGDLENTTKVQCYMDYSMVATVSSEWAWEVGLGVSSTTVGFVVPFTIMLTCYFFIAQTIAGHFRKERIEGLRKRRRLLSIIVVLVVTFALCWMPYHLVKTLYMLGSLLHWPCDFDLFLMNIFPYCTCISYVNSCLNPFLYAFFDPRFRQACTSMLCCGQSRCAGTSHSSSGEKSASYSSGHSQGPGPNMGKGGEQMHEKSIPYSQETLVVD

B1: SEQ ID NO: 558 (peptide)
peptide: Tridecanoyl-[AC4Abu][AEEA][AEEA][Deg][hArg]P[dR][Cha]SHKG[Oic][Nle]P[Phe(4-Cl)]-OH
SMILES: CCCCCCCCCCCCC(=O)NCCC(C(=O)O)C(=O)NCCOCCOCC(=O)NCCOCCOCC(=O)NC(CC)(CC)C(=O)N[C@@H](CCCCNC(=N)N)C(=O)N1CCC[C@H]1C(=O)N[C@H](CCCNC(=N)N)C(=O)N[C@@H](CC1CCCCC1)C(=O)N[C@@H](CO)C(=O)N[C@@H](Cc1c[nH]cn1)C(=O)N[C@@H](CCCCN)C(=O)NCC(=O)N1[C@H](C(=O)N[C@@H](CCCC)C(=O)N2CCC[C@H]2C(=O)N[C@@H](Cc2ccc(Cl)cc2)C(=O)O)C[C@@H]2CCCC[C@@H]21
B2: SEQ ID NO: 490 (peptide)
peptide: Tridecanoyl-[γGlu][AEEA][AEEA][hArg]Q[hArg]P[hArg][Cha]SHKG[Oic][Nle]P[Phe(4-Cl)]-OH
SMILES: CCCCCCCCCCCCC(=O)N[C@@H](CCC(=O)NCCOCCOCC(=O)NCCOCCOCC(=O)N[C@@H](CCCCNC(=N)N)C(=O)N[C@@H](CCC(N)=O)C(=O)N[C@@H](CCCCNC(=N)N)C(=O)N1CCC[C@H]1C(=O)N[C@@H](CCCCNC(=N)N)C(=O)N[C@@H](CC1CCCCC1)C(=O)N[C@@H](CO)C(=O)N[C@@H](Cc1c[nH]cn1)C(=O)N[C@@H](CCCCN)C(=O)NCC(=O)N1[C@H](C(=O)N[C@@H](CCCC)C(=O)N2CCC[C@H]2C(=O)N[C@@H](Cc2ccc(Cl)cc2)C(=O)O)C[C@@H]2CCCC[C@@H]21)C(=O)O
B3: SEQ ID NO: 333 (peptide)
peptide: Tridecanoyl-[γGlu][AEEA][AEEA][hArg][Nle]Q[hArg]P[dR][NMeL]AAKG[Oic][Phe(4-I)]P[dBip]-OH
SMILES: CCCCCCCCCCCCC(=O)N[C@@H](CCC(=O)NCCOCCOCC(=O)NCCOCCOCC(=O)N[C@@H](CCCCNC(=N)N)C(=O)N[C@@H](CCCC)C(=O)N[C@@H](CCC(N)=O)C(=O)N[C@@H](CCCCNC(=N)N)C(=O)N1CCC[C@H]1C(=O)N[C@H](CCCNC(=N)N)C(=O)N(C)[C@@H](CC(C)C)C(=O)N[C@@H](C)C(=O)N[C@@H](C)C(=O)N[C@@H](CCCCN)C(=O)NCC(=O)N1[C@H](C(=O)N[C@@H](Cc2ccc(I)cc2)C(=O)N2CCC[C@H]2C(=O)N[C@H](Cc2ccc(-c3ccccc3)cc2)C(=O)O)C[C@@H]2CCCC[C@@H]21)C(=O)O
B4: SEQ ID NO: 310 (peptide)
peptide: Tridecanoyl-[γGlu][AEEA][AEEA][hArg]Q[hArg]P[NMeR][Cha]SHKG[Oic][Nle]P[Phe(4-Cl)]-OH
SMILES: CCCCCCCCCCCCC(=O)N[C@@H](CCC(=O)NCCOCCOCC(=O)NCCOCCOCC(=O)N[C@@H](CCCCNC(=N)N)C(=O)N[C@@H](CCC(N)=O)C(=O)N[C@@H](CCCCNC(=N)N)C(=O)N1CCC[C@H]1C(=O)N(C)[C@@H](CCCNC(=N)N)C(=O)N[C@@H](CC1CCCCC1)C(=O)N[C@@H](CO)C(=O)N[C@@H](Cc1c[nH]cn1)C(=O)N[C@@H](CCCCN)C(=O)NCC(=O)N1[C@H](C(=O)N[C@@H](CCCC)C(=O)N2CCC[C@H]2C(=O)N[C@@H](Cc2ccc(Cl)cc2)C(=O)O)C[C@@H]2CCCC[C@@H]21)C(=O)O
B5: SEQ ID NO: 327 (peptide)
peptide: Tridecanoyl-[γGlu][AEEA][AEEA][hArg][Nle]Q[hArg]P[dR][NMeL]SAKG[Oic][Phe(4-I)]P[dBip]-OH
SMILES: CCCCCCCCCCCCC(=O)N[C@@H](CCC(=O)NCCOCCOCC(=O)NCCOCCOCC(=O)N[C@@H](CCCCNC(=N)N)C(=O)N[C@@H](CCCC)C(=O)N[C@@H](CCC(N)=O)C(=O)N[C@@H](CCCCNC(=N)N)C(=O)N1CCC[C@H]1C(=O)N[C@H](CCCNC(=N)N)C(=O)N(C)[C@@H](CC(C)C)C(=O)N[C@@H](CO)C(=O)N[C@@H](C)C(=O)N[C@@H](CCCCN)C(=O)NCC(=O)N1[C@H](C(=O)N[C@@H](Cc2ccc(I)cc2)C(=O)N2CCC[C@H]2C(=O)N[C@H](Cc2ccc(-c3ccccc3)cc2)C(=O)O)C[C@@H]2CCCC[C@@H]21)C(=O)O
B6: SEQ ID NO: 315 (peptide)
peptide: Tridecanoyl-[γGlu][AEEA][AEEA][hArg][Nle]Q[hArg]P[dR][NMeL]SHKG[Oic][Phe(4-I)]P[dBip]-OH
SMILES: CCCCCCCCCCCCC(=O)N[C@@H](CCC(=O)NCCOCCOCC(=O)NCCOCCOCC(=O)N[C@@H](CCCCNC(=N)N)C(=O)N[C@@H](CCCC)C(=O)N[C@@H](CCC(N)=O)C(=O)N[C@@H](CCCCNC(=N)N)C(=O)N1CCC[C@H]1C(=O)N[C@H](CCCNC(=N)N)C(=O)N(C)[C@@H](CC(C)C)C(=O)N[C@@H](CO)C(=O)N[C@@H](Cc1c[nH]cn1)C(=O)N[C@@H](CCCCN)C(=O)NCC(=O)N1[C@H](C(=O)N[C@@H](Cc2ccc(I)cc2)C(=O)N2CCC[C@H]2C(=O)N[C@H](Cc2ccc(-c3ccccc3)cc2)C(=O)O)C[C@@H]2CCCC[C@@H]21)C(=O)O
B7: SEQ ID NO: 443 (peptide)
peptide: Tridecanoyl-[γGlu][AEEA][AEEA][Deg]RP[NMeR][Cha]SHKG[Oic][Nle]P[Phe(4-Cl)]-OH
SMILES: CCCCCCCCCCCCC(=O)N[C@@H](CCC(=O)NCCOCCOCC(=O)NCCOCCOCC(=O)NC(CC)(CC)C(=O)N[C@@H](CCCNC(=N)N)C(=O)N1CCC[C@H]1C(=O)N(C)[C@@H](CCCNC(=N)N)C(=O)N[C@@H](CC1CCCCC1)C(=O)N[C@@H](CO)C(=O)N[C@@H](Cc1c[nH]cn1)C(=O)N[C@@H](CCCCN)C(=O)NCC(=O)N1[C@H](C(=O)N[C@@H](CCCC)C(=O)N2CCC[C@H]2C(=O)N[C@@H](Cc2ccc(Cl)cc2)C(=O)O)C[C@@H]2CCCC[C@@H]21)C(=O)O
B8: SEQ ID NO: 321 (peptide)
peptide: Tridecanoyl-[γGlu][AEEA][AEEA][hArg][Nle]Q[hArg]P[dR][NMeL]AHKG[Oic][Phe(4-I)]P[dBip]-OH
SMILES: CCCCCCCCCCCCC(=O)N[C@@H](CCC(=O)NCCOCCOCC(=O)NCCOCCOCC(=O)N[C@@H](CCCCNC(=N)N)C(=O)N[C@@H](CCCC)C(=O)N[C@@H](CCC(N)=O)C(=O)N[C@@H](CCCCNC(=N)N)C(=O)N1CCC[C@H]1C(=O)N[C@H](CCCNC(=N)N)C(=O)N(C)[C@@H](CC(C)C)C(=O)N[C@@H](C)C(=O)N[C@@H](Cc1c[nH]cn1)C(=O)N[C@@H](CCCCN)C(=O)NCC(=O)N1[C@H](C(=O)N[C@@H](Cc2ccc(I)cc2)C(=O)N2CCC[C@H]2C(=O)N[C@H](Cc2ccc(-c3ccccc3)cc2)C(=O)O)C[C@@H]2CCCC[C@@H]21)C(=O)O

target: T1, rat APJ receptor; assay: cell-based or functional assay

EC50 Rat APJ Receptor	Binder
12.5 nM	B1
0.102 nM	B2
24.9 nM	Tridecanoyl-[γGlu][AEEA][AEEA][BLeu][hArg]P[NMeR][Cha]SHKG[Oic][Nle]P[dPhe(4-Cl)]-OH [SEQ ID NO: 298]
1.02 nM	Tridecanoyl-[γGlu][AEEA][AEEA][BLeu]RP[hArg][BLeu]SHKG[Oic][Nle]P[Phe(4-Cl)]-OH [SEQ ID NO: 395]
0.503 nM	Tridecanoyl-[γGlu][AEEA][AEEA][BLeu]RP[NMeR][αMeL]SHKG[Oic][Nle]P[Phe(4-Cl)]-OH [SEQ ID NO: 374]
46.6 nM	B3
0.363 nM	B4
14.8 nM	B5
0.727 nM	Tridecanoyl-[γGlu][AEEA][AEEA][BLeu]RP[NMeR][αMeL]SHKG[Oic][Nle][αMeP][Phe(4-Cl)]-OH [SEQ ID NO: 388]
2.67 nM	Tridecanoyl-[γGlu][AEEA][AEEA][BLeu]RP[NMeR][Cha]SHKG[Oic][Nle]P[Phe(4-Cl)]-OH [SEQ ID NO: 393]
4.9 nM	B6
1.67 nM	B7
4.88 nM	Tridecanoyl-[AC4Abu][AEEA][AEEA][BLeu]R[αMeP][hArg][αMeL]SHKG[Oic][Nle][αMeP][Phe(4-Cl)]-OH [SEQ ID NO: 552]
29.1 nM	B8
1.5 nM	Tridecanoyl-[γGlu][AEEA][AEEA][BLeu]RP[NMeR][BLeu]SHKG[Oic][Nle]P[Phe(4-Cl)]-OH [SEQ ID NO: 394]

target: T2, human APJ receptor; assay: cell-based or functional assay

EC50 Human APJ Receptor	Binder
3.4 nM	B1
0.0277 nM	B2
32.8 nM	Tridecanoyl-[γGlu][AEEA][AEEA][BLeu][hArg]P[NMeR][Cha]SHKG[Oic][Nle]P[dPhe(4-Cl)]-OH [SEQ ID NO: 298]
0.741 nM	Tridecanoyl-[γGlu][AEEA][AEEA][BLeu]RP[hArg][BLeu]SHKG[Oic][Nle]P[Phe(4-Cl)]-OH [SEQ ID NO: 395]
0.305 nM	Tridecanoyl-[γGlu][AEEA][AEEA][BLeu]RP[NMeR][αMeL]SHKG[Oic][Nle]P[Phe(4-Cl)]-OH [SEQ ID NO: 374]
36.1 nM	B3
0.226 nM	B4
14.4 nM	B5
0.706 nM	Tridecanoyl-[γGlu][AEEA][AEEA][BLeu]RP[NMeR][αMeL]SHKG[Oic][Nle][αMeP][Phe(4-Cl)]-OH [SEQ ID NO: 388]
0.769 nM	Tridecanoyl-[γGlu][AEEA][AEEA][BLeu]RP[NMeR][Cha]SHKG[Oic][Nle]P[Phe(4-Cl)]-OH [SEQ ID NO: 393]
3.04 nM	B6
2.31 nM	B7
1.96 nM	Tridecanoyl-[AC4Abu][AEEA][AEEA][BLeu]R[αMeP][hArg][αMeL]SHKG[Oic][Nle][αMeP][Phe(4-Cl)]-OH [SEQ ID NO: 552]
17.9 nM	B8
0.297 nM	Tridecanoyl-[γGlu][AEEA][AEEA][BLeu]RP[NMeR][BLeu]SHKG[Oic][Nle]P[Phe(4-Cl)]-OH [SEQ ID NO: 394]
